Patent US20110154541A1

Biological target: horse-heart mitochondrial cytochrome c (horse) (UniProt P00004)
Assay: cell-based or functional assay

UniProt P00004, sequence (P00004 2-105 limits assumed): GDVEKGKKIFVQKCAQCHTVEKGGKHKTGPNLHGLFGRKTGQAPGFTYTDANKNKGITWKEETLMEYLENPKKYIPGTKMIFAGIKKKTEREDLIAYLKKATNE

## Photosystem II with variant D1 protein D1-K238E, in thylakoid membranes isolated from the Synechocystis sp. PCC 6803 Glu mutant strain (from UniProt P16033 1-344)
  rate of cc reduction (light-dependent, increase of the cc alpha peak at 550 nm), with DCMU (µmol/(mg chl·h)): 20
  rate of cc reduction (light-dependent, increase of the cc alpha peak at 550 nm), without DCMU (µmol/(mg chl·h)): 12
